The text below walks through data of paper PMC10868123.

The target in the assay is VPS13C, endogenous in HEK-293 cells [human (endogenous in HEK-293 FT/HEK-293 T)]. Nature of the assay: co-IP (anti-GFP IP, immunoblot quantification). Particulars: N = 4; parent: 1; read off a plot. Background: A western blot detects proteins with antibodies after separation by electrophoresis.

Regarding “eGFP-Rab10 WT mutant T73A [not stated] / VPS13C, endogenous in HEK-293 cells [human (endogenous in HEK-293 FT/HEK-293 T)] chain 1 T73A”, the ratio to parent is 0.34.
With “eGFP-Rab10 WT mutant T73E [not stated] / VPS13C, endogenous in HEK-293 cells [human (endogenous in HEK-293 FT/HEK-293 T)] chain 1 T73E” the figure was 1.3.
